The target in this assay is C1q (Complement Technologies, Tyler, Tex.) (UniProt P02745). The assay is described as follows: cell-based or functional assay.

The text below walks through data of patent publication US20140271623A1.

Chain of UniProt P02745 (P02745 23-245 limits assumed, chain 1 of 3): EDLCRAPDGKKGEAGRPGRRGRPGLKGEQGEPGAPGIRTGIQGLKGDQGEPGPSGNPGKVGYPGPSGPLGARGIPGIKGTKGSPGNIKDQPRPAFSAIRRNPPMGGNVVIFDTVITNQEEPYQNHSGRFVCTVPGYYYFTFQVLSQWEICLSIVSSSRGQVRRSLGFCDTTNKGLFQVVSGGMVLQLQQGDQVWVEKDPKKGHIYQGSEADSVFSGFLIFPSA
Chain of UniProt P02745 (P02746 28-253 limits assumed, chain 2 of 3, further chain): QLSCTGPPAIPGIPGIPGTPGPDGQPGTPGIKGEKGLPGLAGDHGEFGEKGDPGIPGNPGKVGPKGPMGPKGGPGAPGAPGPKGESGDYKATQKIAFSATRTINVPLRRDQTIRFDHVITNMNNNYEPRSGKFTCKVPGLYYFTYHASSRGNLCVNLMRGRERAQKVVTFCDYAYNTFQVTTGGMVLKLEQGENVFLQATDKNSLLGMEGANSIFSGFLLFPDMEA
Chain of UniProt P02745 (P02747 29-245 limits assumed, chain 3 of 3, further chain): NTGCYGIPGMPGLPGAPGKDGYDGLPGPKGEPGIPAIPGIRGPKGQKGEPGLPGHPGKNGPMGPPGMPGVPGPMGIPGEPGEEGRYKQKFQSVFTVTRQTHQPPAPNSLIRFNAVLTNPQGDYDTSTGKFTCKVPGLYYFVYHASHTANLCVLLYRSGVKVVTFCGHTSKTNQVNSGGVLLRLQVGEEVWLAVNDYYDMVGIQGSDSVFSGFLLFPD

Consider “Anti-CD38 antibody (005), unfractionated preparation after carboxypeptidase B treatment”, for which the EC50 values [µg/mL] for C1q requirement for induction of CDC of Daudi cells stood at 0.8 µg/mL and the efficacy of C1q utilization, fold improvement by carboxypeptidase B treatment is below 2 fold. As for “Anti-CD38 antibody (005), collected K2 isoform (two heavy-chain C-terminal lysines per antibody)”, the EC50 values [µg/mL] for C1q requirement for induction of CDC of Daudi cells stood at 4.8 µg/mL. As to “Anti-CD38 antibody (005), unfractionated preparation isolated from hybridoma supernatant”, the EC50 values [µg/mL] for C1q requirement for induction of CDC of Daudi cells is 1.3 µg/mL.
